Positions count from the first letter of the chain named. In names and notes the source's numbering stands.
T1: PUF4 RNA-binding domain (Saccharomyces cerevisiae, UniProt P25339 537-888)
T1 sequence: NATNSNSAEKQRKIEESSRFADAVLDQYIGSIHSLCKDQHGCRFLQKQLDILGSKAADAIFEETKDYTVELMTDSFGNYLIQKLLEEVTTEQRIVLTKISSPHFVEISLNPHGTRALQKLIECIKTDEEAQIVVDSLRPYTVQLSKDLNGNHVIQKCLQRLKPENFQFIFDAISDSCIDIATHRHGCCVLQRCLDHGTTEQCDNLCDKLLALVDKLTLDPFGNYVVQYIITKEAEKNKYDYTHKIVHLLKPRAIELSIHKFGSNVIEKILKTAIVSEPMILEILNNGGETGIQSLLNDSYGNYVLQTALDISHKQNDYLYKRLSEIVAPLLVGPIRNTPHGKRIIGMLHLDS

B1: Ic_S4_P4E.1_K4.1_C4.1_H4.1_A4.1_[T5G]_[A6C]_[T7C]_F4.1_[A9C]_T4.1 (ssRNA)
RNA: UUUGACAACUGAUCGUUCUUUCUUGUAGCCUCUUCUUUCUCGAUCAGUUGUCUUU
B2: Ic_S4_P4E.1_K4.1_C4.1_H4.1_A4.1_[T5G]_[A6T]_[T7A]_F4.1_[T8A]_T4.1 (ssRNA)
RNA: B1 RNA with C29U, C30A, U31A, C32A
B3: Ic_S4_P4E.1_K4.1_C4.1_H4.1_A4.1_[T5G]_[A6C]_[T7A]_F4.1_[T8A]_[A9C]_T4.1 (ssRNA)
RNA: B1 RNA with C30A, U31A
B4: Ic_S4_P4E.1_K4.1_C4.1_H4.1_A4.1_[T5G]_[A6T]_[T7A]_F4.1_[T8C]_[A9G]_T4.1 (ssRNA)
RNA: B1 RNA with C29U, C30A, U31C, C32G
B5: Ic_S4_P4E.1_K4.1_C4.1_H4.1_A4.1_[T5G]_[A6T]_[T7C]_F4.1_[T8C]_[A9G]_T4.1 (ssRNA)
RNA: B1 RNA with C29U, U31C, C32G
B6: Ic_S4_P4E.1_K4.1_C4.1_H4.1_A4.1_[T5G]_[A6T]_[T7G]_F4.1_[T8C]_[A9C]_T4.1 (ssRNA)
RNA: B1 RNA with C29U, C30G, U31C
B7: Ic_S4_P4E.1_K4.1_C4.1_H4.1_A4.1_[T5G]_[A6T]_[T7G]_F4.1_T4.1 (ssRNA)
RNA: B1 RNA with C29U, C30G, C32A
B8: Ic_S4_P4E.1_K4.1_C4.1_H4.1_A4.1_[T5C]_[A6G]_[T7G]_F4.1_[T8C]_[A9T]_T4.1 (ssRNA)
RNA: B1 RNA with G28C, C29G, C30G, U31C, C32U
B9: Ic_S4_P4E.1_K4.1_C4.1_H4.1_A4.1_[T5G]_[A6T]_[T7A]_F4.1_[T8G]_[A9T]_T4.1 (ssRNA)
RNA: B1 RNA with C29U, C30A, U31G, C32U
B10: Ic_S4_P4E.1_K4.1_C4.1_H4.1_A4.1_[T5G]_[A6T]_[T7A]_F4.1_[A9C]_T4.1 (ssRNA)
RNA: B1 RNA with C29U, C30A
B11: Ic_S4_P4E.1_K4.1_C4.1_H4.1_A4.1_[T5C]_[A6G]_[T7G]_F4.1_[A9C]_T4.1 (ssRNA)
RNA: B1 RNA with G28C, C29G, C30G
B12: Ic_S4_P4E.1_K4.1_C4.1_H4.1_A4.1_[T5C]_[A6G]_[T7C]_F4.1_[T8C]_[A9C]_T4.1 (ssRNA)
RNA: B1 RNA with G28C, C29G, U31C
B13: Ic_S4_P4E.1_K4.1_C4.1_H4.1_A4.1_[T5G]_[A6T]_F4.1_[T8A]_[A9C]_T4.1 (ssRNA)
RNA: B1 RNA with C29U, C30U, U31A
B14: Ic_S4_P4E.1_K4.1_C4.1_H4.1_A4.1_[T5G]_[A6T]_F4.1_[A9T]_T4.1 (ssRNA)
RNA: B1 RNA with C29U, C30U, C32U
B15: Ic_S4_P4E.1_K4.1_C4.1_H4.1_A4.1_[T5G]_[A6C]_F4.1_[T8G]_[A9T]_T4.1 (ssRNA)
RNA: B1 RNA with C30U, U31G, C32U
B16: Ic_S4_P4E.1_K4.1_C4.1_H4.1_A4.1_[T5G]_[A6T]_[T7A]_F4.1_[T8C]_[A9T]_T4.1 (ssRNA)
RNA: B1 RNA with C29U, C30A, U31C, C32U
B17: Ic_S4_P4E.1_K4.1_C4.1_H4.1_A4.1_[T5G]_[A6T]_[T7A]_F4.1_[T8A]_[A9C]_T4.1 (ssRNA)
RNA: B1 RNA with C29U, C30A, U31A
B18: Ic_S4_P4E.1_K4.1_C4.1_H4.1_A4.1_[T5C]_[A6G]_[T7G]_F4.1_[A9T]_T4.1 (ssRNA)
RNA: B1 RNA with G28C, C29G, C30G, C32U
B19: Ic_S4_P4E.1_K4.1_C4.1_H4.1_A4.1_[T5G]_[A6T]_[T7A]_F4.1_T4.1 (ssRNA)
RNA: B1 RNA with C29U, C30A, C32A
B20: Ic_S4_P4E.1_K4.1_C4.1_H4.1_A4.1_[T5G]_[A6T]_[T7C]_F4.1_[T8C]_[A9T]_T4.1 (ssRNA)
RNA: B1 RNA with C29U, U31C, C32U
B21: Ic_S4_P4E.1_K4.1_C4.1_H4.1_A4.1_[T5G]_[A6T]_[T7A]_F4.1_[A9T]_T4.1 (ssRNA)
RNA: B1 RNA with C29U, C30A, C32U
B22: Ic_S4_P4E.1_K4.1_C4.1_H4.1_A4.1_[T5G]_[A6T]_[T7C]_F4.1_[T8C]_T4.1 (ssRNA)
RNA: B1 RNA with C29U, U31C, C32A
B23: Ic_S4_P4E.1_K4.1_C4.1_H4.1_A4.1_[T5G]_[A6C]_F4.1_[T8C]_T4.1 (ssRNA)
RNA: B1 RNA with C30U, U31C, C32A
B24: Ic_S4_P4E.1_K4.1_C4.1_H4.1_A4.1_[T5G]_[A6T]_[T7C]_F4.1_[A9C]_T4.1 (ssRNA)
RNA: B1 RNA with C29U
B25: Ic_S4_P4E.1_K4.1_C4.1_H4.1_A4.1_[T5G]_[A6C]_[T7A]_F4.1_[A9C]_T4.1 (ssRNA)
RNA: B1 RNA with C30A
B26: Ic_S4_P4E.1_K4.1_C4.1_H4.1_A4.1_[T5G]_[A6T]_F4.1_[T8C]_[A9T]_T4.1 (ssRNA)
RNA: B1 RNA with C29U, C30U, U31C, C32U
B27: Ic_S4_P4E.1_K4.1_C4.1_H4.1_A4.1_[T5G]_[A6C]_[T7A]_F4.1_[T8C]_T4.1 (ssRNA)
RNA: B1 RNA with C30A, U31C, C32A
B28: Ic_S4_P4E.1_K4.1_C4.1_H4.1_A4.1_[T5G]_[A6C]_[T7A]_F4.1_[T8G]_[A9T]_T4.1 (ssRNA)
RNA: B1 RNA with C30A, U31G, C32U
B29: Ic_S4_P4E.1_K4.1_C4.1_H4.1_A4.1_[T5G]_[A6T]_[T7C]_F4.1_[T8C]_[A9C]_T4.1 (ssRNA)
RNA: B1 RNA with C29U, U31C
B30: Ic_S4_P4E.1_K4.1_C4.1_H4.1_A4.1_[T5G]_[A6C]_[T7A]_F4.1_[A9G]_T4.1 (ssRNA)
RNA: B1 RNA with C30A, C32G
B31: Ic_S4_P4E.1_K4.1_C4.1_H4.1_A4.1_[T5C]_[A6G]_[T7C]_F4.1_[T8G]_[A9G]_T4.1 (ssRNA)
RNA: B1 RNA with G28C, C29G, U31G, C32G
B32: Ic_S4_P4E.1_K4.1_C4.1_H4.1_A4.1_[T5G]_[A6T]_[T7G]_F4.1_[T8C]_[A9T]_T4.1 (ssRNA)
RNA: B1 RNA with C29U, C30G, U31C, C32U
B33: Ic_S4_P4E.1_K4.1_C4.1_H4.1_A4.1_[T5G]_[A6T]_[T7A]_F4.1_[A9G]_T4.1 (ssRNA)
RNA: B1 RNA with C29U, C30A, C32G
B34: Ic_S4_P4E.1_K4.1_C4.1_H4.1_A4.1_[T5G]_[A6T]_F4.1_[A9G]_T4.1 (ssRNA)
RNA: B1 RNA with C29U, C30U, C32G
B35: Ic_S4_P4E.1_K4.1_C4.1_H4.1_A4.1_[T5G]_[A6T]_[T7G]_F4.1_[A9C]_T4.1 (ssRNA)
RNA: B1 RNA with C29U, C30G
B36: Ic_S4_P4E.1_K4.1_C4.1_H4.1_A4.1_[T5G]_[A6C]_F4.1_[A9T]_T4.1 (ssRNA)
RNA: B1 RNA with C30U, C32U
B37: Ic_S4_P4E.1_K4.1_C4.1_H4.1_A4.1_[T5G]_[A6T]_[T7C]_F4.1_[T8G]_[A9T]_T4.1 (ssRNA)
RNA: B1 RNA with C29U, U31G, C32U
B38: Ic_S4_P4E.1_K4.1_C4.1_H4.1_A4.1_[T5C]_[A6G]_[T7C]_F4.1_[T8G]_[A9T]_T4.1 (ssRNA)
RNA: B1 RNA with G28C, C29G, U31G, C32U
B39: Ic_S4_P4E.1_K4.1_C4.1_H4.1_A4.1_[T5G]_[A6T]_[T7C]_F4.1_[A9G]_T4.1 (ssRNA)
RNA: B1 RNA with C29U, C32G
B40: Ic_S4_P4E.1_K4.1_C4.1_H4.1_A4.1_[T5G]_[A6T]_F4.1_[T8G]_[A9T]_T4.1 (ssRNA)
RNA: B1 RNA with C29U, C30U, U31G, C32U

What follows are binders tested against T1, PUF4 RNA-binding domain (assay: Mg; RNA-MaP; 20 mM Na-HEPES pH 7.4, 30 mM KOAc, 0.75 mM MgCl2, 0.1% Tween-20, 5% glycerol, 0.1 mg/mL BSA, 2 mM DTT; 25 C; 0.0125-409.6 nM protein). Conditions: tags: N-His6-TEV cleaved; C-SNAP kept, Cy3B-labelled; label: tethered on chip by stalled RNA polymerase.

Binder	Kd [nM]
UCUCUUUGUCUAUUUUCUCUU (ssRNA) [Ib_S1_P4E.1_K4.1_C4.1_H4.1_[A4C]_A4.1_F4.1_[A9T]_T4.1]	807
UCUCUUUGCAUAUUAUCUCUU (ssRNA) [Ia_S1_P4E.1_K4.1_C4.1_H4.1_[T3C]_A4.1_F4.1_T4.1]	76.5
UCUCUUUGUUUAUUUUCUCUU (ssRNA) [Ib_S1_P4E.1_K4.1_C4.1_H4.1_[A4T]_A4.1_F4.1_[A9T]_T4.1]	353
UCUCUUUGUGUAUUUUCUCUU (ssRNA) [Ib_S1_P4E.1_K4.1_C4.1_H4.1_[A4G]_A4.1_F4.1_[A9T]_T4.1]	33.2
B1	747
B2	445
B3	1350
B4	688
B5	701
B6	1240
B7	12.1
B8	488
B9	649
B10	173
B11	514
B12	142
B13	875
B14	55.8
B15	117
B16	285
B17	977
B18	158
B19	2.95

Binder	Kd [nM]
B20	194
B21	40.6
B22	445
B23	365
B24	155
B25	61.1
B26	96
B27	772
B28	495
B29	514
B30	51.3
B31	1800
B32	467
B33	37.3
B34	65
B35	238
B36	40.5
B37	616
B38	400
B39	166
B40	291
UCUCUUUGUUUAUUCUCUCUU (ssRNA) [Ib_S1_P4E.1_K4.1_C4.1_H4.1_[A4T]_A4.1_F4.1_[A9C]_T4.1]	804
